Experimental data reported in the supplement of paper PMC9170038.

Experiments:
MS2 coat protein [1] = test: apparent KD of MS2 coat protein, switch ON state; designed switch direction (-1 OFF switch, 1 ON switch): -1; higher = weaker reporter binding; settings: FMN input: 0 or 200 uM; Eterna round: R93 (includes R88 designs)
In short: (§1)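 Each design's apparent KD comes from the median of binding-curve fits to its normalised clusters. Those clusters carried RNA switches transcribed on-chip from Illumina sequencing clusters. SNAP-549-labelled MS2 coat protein was titrated onto them in twofold steps (0.7 or 1.5 nM to 3 µM; per step 0.8–1.5 h down to 10–20 min). Conditions were 100 mM Tris-HCl pH 7.5, 80 mM KCl, 4 mM MgCl2, without or with constant ligand.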

MS2 coat protein [2] = test: apparent KD of MS2 coat protein, switch OFF state (with FMN for OFF switches, without FMN for ON switches); designed switch direction (-1 OFF switch, 1 ON switch): -1; higher = weaker reporter binding; settings: FMN input: 0 or 200 uM; Eterna round: R93 (includes R88 designs)
In short: as §1

Row | Sequence | apparent KD of MS2 coat protein (MS2 coat protein [1]) | apparent KD of MS2 coat protein (MS2 coat protein [2])
1 | AAAAAACAUGAGGAUCACCCAUGUUAGGAUAUCGUGCAGAAAAAAAAAAAAAACUGCACGAGAAGGAACAAGGA [Brourd - Exclusion 1 - Sub 2] | 29.1 nM | 44.9 nM
2 | AAAAAAGCAGGAUAUACGAACAUGUCAAAAGACGUGAAGGGACAUGAGGAUCACCCAUGUAGAAGGGUUAAGAA [JL Stem Breaker 16] | 179 nM | 36.8 nM
3 | AAAAAAGGAGGAUAUACGAACAUGUCAAAAGACGUGAAGGGACAUGAGGAUCACCCAUGUAGAAGGUCUAAAAA [JL Part Open 35] | 52.3 nM | 34.1 nM
4 | AAAAACCUAGGAUAUACAUGAGGAUCACCCAUGUAAAGAAAAAAAAAGGGAAAAAAAAGUAGAAGGAGGAAGAA [JR_Exc003_Sub1201] | 16.6 nM | 18.6 nM
5 | AAAAAGCGAGGAUAUACAUGAGGAUCACCCAUGUCAAAAGGUAAGACCGCAGAAAAAAGUAGAAGGCGCAAAAA [Exclusion3-01] | 68.1 nM | 172 nM
6 | AAAAAGCGAGGAUAUACGAGUCAAAGAAAAGACAAAGGGAAACAUGAGGAUCACCCAUGUAGAAGGCGCAAAAA [Fiskers exclusion D2 62% 1] | 23.7 nM | 134 nM
7 | AAAAAGGCAGGAUAUACAAAAAAGAGAAGAGAGGAGGAGGGACAUGAGGAUCACCCAUGUAGAAGGGCCAAAAA [Karl Gunnar Myrdal] | 31.5 nM | 32.5 nM
8 | AAAAAGGGAGGAUAUACAUGAGGAUCACCCAUGUAAAACGCGCCAACAAAGAAACAAAGUAGAAGGCCCAAAAA [Default title] | 17.3 nM | 14.5 nM
9 | AAAAAGGGAGGAUAUACAUGAGGAUCACCCAUGUAUCAGACGAAAAAGAGUCUGGAAUGUAGAAGGCCCAAAAA [65%, Moding Exclusion3-cac2, 3] | 14.3 nM | 25 nM
10 | AAAAAGGGAGGAUAUGCAUACACACAAAAAAAAAAAAAGGGACAUGAGGAUCACCCAUGUAGAAGGCCCAAAAA [Dora Explored 5 - Jieux - Exclusion 2] | 29.9 nM | 25.1 nM
11 | AAAAAGGUAGGAUAUACAUGAGGAUCACCCAUGUACAUAAAUGGAGAAAAAAACAGUAGUAGAAGGGCCAAAAA [Ex3 Malc#10] | 29.5 nM | 36.9 nM
12 | AAAAAGUCAGGAUAUCGGAAAAUAAAAAUAAAAAUAAAAAACGAGAAGGGACAUGAGGAUCACCCAUGUAUGAC [Mat - Exclusion 4 - Mayanna - D114] | 27.6 nM | 24.6 nM
13 | AAAAAGUGAGGAUAUACAUGAGGAUCACCCAUGUGUAUAAAAAAAUACACAAAAGAAAGUAGAAGGCACUAAAG [Mat - Exclusion 3 - Mayanna mod - D109] | 28.4 nM | 84.8 nM
14 | AAAAAGUGAGGAUAUACAUGAGGAUCACCCAUGUGUAUAAAAAAUUACACAAAAGAAUGUAGAAGGCACUAAAA [JL Mayanne Mod Summer] | 23.5 nM | 124 nM
15 | AAAAAGUGAGGAUAUACGUUGAAGAGAAAACACAUCCAGGCGUAGAAGGCACAUGAGGAUCACCCAUGUACAAA [Ex4 Malc#7] | 23.4 nM | 19.8 nM
16 | AAAAAGUGAGGAUAUGGUAAAAAAAAAAAAAAAAAAAAACUCCAGAAGGCACAUGAGGAUCACCCAUGUAAAAA [Jolly's Folly - Jieux - Exclusion 4] | 58.5 nM | 5290 nM
17 | AAAAAGUGAGGAUAUGUCAAAAGUCACAAAAGUGACAAAAGACAGAAGGCACAUGAGGAUCACCCAUGUGAAAG [Mat - Exaclusion 4 - Eli mod - D53] | 28.9 nM | 37.6 nM
18 | AAAAAGUGAGGAUAUUCGGAUAGGAAAACGAAAACCUAUCCGAAGAAGGCACAUGAGGAUCACCCAUGUGAGAA [67% Ecls-II - Early G + late G segment 4] | 26.5 nM | 51.3 nM
